By Kd is commonly meant the free concentration of one partner at which half of the binding sites on the other are occupied at equilibrium, for simple one-to-one binding. Higher therefore signals lower affinity.

This passage reports Kd results from EP3446126B1 (Université Libre de Bruxelles, dated 2024).

The target in this test is human DPP6 protein (as used in the affinity analysis) (human, UniProt P42658 117-865, limits assumed). As to the kind of experiment: affinity analysis versus human DPP6 protein; method not stated.
Chain of human DPP6 protein (as used in the affinity analysis) (P42658 117-865 limits assumed): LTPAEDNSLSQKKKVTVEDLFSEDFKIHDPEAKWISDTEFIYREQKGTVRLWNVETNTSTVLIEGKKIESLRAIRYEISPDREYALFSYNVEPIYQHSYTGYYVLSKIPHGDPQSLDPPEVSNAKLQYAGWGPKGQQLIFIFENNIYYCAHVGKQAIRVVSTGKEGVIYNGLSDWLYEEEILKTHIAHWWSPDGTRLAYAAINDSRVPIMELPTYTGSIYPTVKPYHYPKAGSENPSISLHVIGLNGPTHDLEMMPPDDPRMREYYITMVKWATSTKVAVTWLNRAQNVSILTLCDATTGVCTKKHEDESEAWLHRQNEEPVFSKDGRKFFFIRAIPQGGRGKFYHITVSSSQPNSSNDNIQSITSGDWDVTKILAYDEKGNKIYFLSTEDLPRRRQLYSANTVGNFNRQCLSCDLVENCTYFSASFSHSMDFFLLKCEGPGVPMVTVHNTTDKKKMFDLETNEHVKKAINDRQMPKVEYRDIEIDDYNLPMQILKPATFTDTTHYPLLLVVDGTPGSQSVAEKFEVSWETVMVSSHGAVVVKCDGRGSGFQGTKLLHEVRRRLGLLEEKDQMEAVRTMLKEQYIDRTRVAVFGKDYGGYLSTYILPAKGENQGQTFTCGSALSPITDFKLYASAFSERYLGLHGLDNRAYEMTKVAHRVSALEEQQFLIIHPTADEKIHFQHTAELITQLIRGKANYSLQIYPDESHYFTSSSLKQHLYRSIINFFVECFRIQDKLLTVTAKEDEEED

B1: nanobody 4hD29 (VHH)
VHH: QVQLQESGGGLVQPGGSLRLSCAASGFTFSSNYMTWVRQAPGKGPEWVSGINPDGSSTYYADSVKGRFTISRDNAKNTLYLQMNSLKSEDTALYKCATGAAPRIPTTLRGQGTQVTVSS
notes: Dromedary nanobody from an immune phage display library; also called Nb 4hD29; 4hD29 Nb
As for B1, the affinity, expressed as Kd, was 1.2 nM.
